For the assay, the target named is SARS-CoV-2 S trimer (stabilized S ectodomain, residues 1-1208, proline substitutions at 986 and 987, GSAS at … (SARS-CoV-2, Wuhan-Hu-1, proline substitution at residue 986 | proline substitution at residue 987 | …, biotin (EZ-Link Sulfo-NHS-LC-LC-Biotin) in the BLI experiments; not labelled for cryo-EM). The assay can be described thus: BLI. The conditions noted are these: both partners purified.

One may read the Kd as the constant that tells how readily two partners part at equilibrium.

B1: human-mouse chimeric antibody 3C1 (c3C1) (antibody, V domains shown)
VH: EVQLQESGPSLVKPSQTLSLTCSVTGDSITNGYWNWIRKFPGNKLEYMGYISYSGSTYYSPSLKSRISITRDTSKNQHYLQLNSVTSEDTATYYCASDYHGSKYYFDYWGQGTTLTVSS
VL: DIVMTQSHKFMSTSVGHRVSITCKASQDVGNDVAWYQQKPGQSPKLLIYWASTRHTGVPDRFTGSGSGTDFTLTISNVQSEDLADYFCQQYNRYPYTFGGGTKLEIK
notes: also called chimeric MAb c3C1
The molecule B1 had a Kd below 1 pM.
